Data on four proteins can be found in publication PMC12819142, “Atomic models of the Toxoplasma cell invasion machinery” (Nature Structural & Molecular Biology, 2025).

A word on the stoichiometry N: it is the number of molecules, sites or subunits per partner or assembly.

Series [1] deals with the molecule itself. Nature of the series: cryo-EM structure; conoid fibers (CF), native, from isolated T. gondii conoids after sonication and α-chymotrypsin; single-particle analysis, 2.9 Å (8-nm repeat) and 3.1 Å (24-nm repeat).
Series [2] concerns the molecule itself. Nature of the series: cryo-EM structure; intraconoidal microtubule ICMT-1, native, from isolated T. gondii conoids; single-particle analysis, 3.3 Å.

B1: SAS6L (natural protein)
chain: MATNFGFGGGASGCTDSVNFLAQVDTSAIDEMDPSLADGHTLVYSREVPFEIRLQETGSSLPGDVGRLEPIRVKILILGEETNPQHVRVELTSENDLFLNYTHALNEDLFRQMQERQKLMIEFGDYPSVLIKMLNSCIKEPHCFLAVLIMHTNGKARLDFIQSMEYKFIELLCLDCVQSTEEFTRRDMTFRYNALKSKLALLQARLHDIGCLLKLKSPSLLLHLQKAAQQQAHRRQQQVAAAAPIPGKLRAPGTTEGASTRFL
notes: source: endogenous, isolated conoids of T. gondii tachyzoites (CHAPS lysis, sonication, α-chymotrypsin)
Turning to B1, the “stoichiometry N” value in series [1] stood at 2.

B2: ICMAP2 (natural protein)
chain: MVTFKSGEVDEHHESFLRREPRSPSRSPSAVQSSWKPVCYIEEIDSLTTFPSSASCDSSSKTKSSRSLISTSLDQPRDSASSSSEPRQSGLLHVNAQDLSPSRPPESLYQTGYVRSPSSFDGTLSCVGEKTGVVRGKSGHPPLSFRSPRMQSVAHSEDRDRKGLTYSFDAYPPEVFSRWKGRSRTGESCGLVTSSRGRSPCSRSPPGRSFPRCVDPQTDRIEEASQNCLPQSSELHASEVLGPADPAACPTQKPTVEPDSSVAASVFCPGTQAESQQVPSLPTDAFSGGDPVRSQVGSKRSHLLEDIQGKTRCSAARAVIDFDASGIRSVVVSDLGGTPLRLSPYLDTLPRSNHPLVLSKAATSVPPYCSSSSENFSEARQGGESRLTGGAAPEGGKLKASAVLGGNPQPRSCPSGGTQAMGGKYQAEESPTRSVFRGKVTVPAAEVHTTQAAGCPSERKVGEFRCQTDTDTLRHFRKSLRSYSDSPKRPETNSLNQGRSGSSRIIGQLSDATFGCRDSMASVRGAFAPPTSTVSKSLRHDEAVLREQGIKVRQKDAIFLKGVEKRHLGMQAGRQDSKPRYGLESAASCNATGAGEDPSPGFRIAGRASSSICAGGSSGESMNSAFMRGLPGSASNVRLPQWMRDYGVEDPSLQTDGCSRNVVSTRHPGTCQYSSADARRPRMRVSAGAPANLTPYLWDENSDRDGDNSLEDISCGPPYRGEMTYSITHSGNSGNQLSSQLPPAPLSVPGDVGSFGFPVAHFVCSNCGATAVPPQCPTCGAVIVQFDGTTQIPVAYRTNGTDALGLASRAVLRNGDSRSVQFSGEADPQSRSYAPYDASPSRSRGPSASRRSHVHSSRQERRELSRGEAETERCTAGTARRSGMVAVTAKKSGPPSRQRLVASSGPSLPSTKKLASQVWGSPRVCAILCSFLGLPQLLTIRRCSKNLLVAAQFEMRYVLYGTLQQLLREEETSKKATSSRPKSCEPPSARNREGRGRTLTPGVASTASARDRSLPACPFNAQTLTRLLELSPAELTALKNGQLPDRRVADAKTPRPEELRARASRLRRLHAERVEEQRRRVSARTSGKRVDREATEPVLVGLDEEMQLRREMQLQHEEELLMRERRLQQQECELFKKQQEIWLQETQQRLRQNITRNGRPHFAVPEPAALSGAGASFPCAHPGGWQKRHVGFDDDLVKGPEIDYESEPPSFRRLRHSFLKLWNYNEAQFKAALYRHAFSSFPAYNYDTTAILCRCIYQLCADATSALPLNSILMLLTDRQSYLWRRMARLSGYVICSFTLNGCRREIGPSMPTTIQRVVPIPLDDGCWDGGRSRGSHRATPSRGRGGASRVGREFGDDSSEDPIPPFCWKEGIRGAVLESIELKLAKLSEEFIDEFVLYGRQQGLLLQLQGADSTVNGRLLATTLRRFCKQPEDRYVLMDLYEWLAAAMTFSQKCIKAKIEAAKRASPSPQCRIARPCTGRLQAFPPYERSEGRYGGRSTTPAFGSSVRGRSGCPGRVETPGATSAMTRGRSIARVSMGARRGVVEDSVHSIAYENALSSRTKSRERHADTPTRSRLVLRGNRAADFQRPVRGRSPDSSANHTGVFGRRSDGKLSTQSGVRSSSASRSRLTNQVSSGLTAREAAALCRLLQNQGKILEEVKQILNNMSAPGRRHTRVP
notes: as for B1
Turning to B2, the “stoichiometry N” value in series [2] amounted to 2.

B3: CF1 (natural protein)
chain: MQPLAREVSRLPRSGPLGPVAAKKDDKTFIPTNVRVSPGEKNDRVVKTEKIDDSTDGSGSHDGPRNLETQLEALTREVRELTLRVQEEKEMKELLNSQLNDAYEELADARSEHRVRGFAGASGARLRGVRGLPAFEARWMEPEHPTAQTAIRSQQEFELLLQEERARRHTMFEQYERHMKVMRKNHHKEKLETKKKVLSQVEFLIKKYRRLASDAVAVAKRERERVAEERKRARELAERACKNFEADLKGRTKTALEQYRRLVQEAHTAAKQEREELHNKCKELQETVDNERREFDTLIVREAEAKMAKFRASYARMKQQTEEERRQYGVMMHEIAKRVEKECAEYEEFVIRTMRDLLQSKGVEMTESGLRDFFQKKREEMRPSGEGHSSTDGLVTVKYRFQAADPEDLQ
notes: as for B1
On to B3, for which the “stoichiometry N” value in series [1] stood at 2.

B4: ICMT-associated protein 1 (ICMAP1) (natural protein)
chain: MMADLTLEPRGAGASRYLMTDLEDLDSSEGNSLVPYSRLGKSGNTDANLYSTPDMTTRYPGSRGLLRDDSRGSGGLDDPMGLPMRSLSPKDLGGRGGPRLSPAELKAQVRLRNMCGKPLRPDDVLVTRILTGEKSYWEALDEMRNLCASLTVENEKLKTGNAKATTKALEVEQKSRAEIRRLQTLQRVTRDELEMKLQDLTAENVRLRQSRDVERALQEQKVHMQKQIERLKQDSEEKGRLAAQRAREIHHLKEETQRSTDEAEALKGRVESLQAKLAEAISQKNLLLIRVKKDIRDIQDSAQQAREAVLAEKARSEQQAAEVEKHAQMQLQLHERKIRDLQQTVASEESQGEYYRRKYEEASKQLAKLKTQFDSTQNKTETDIALRERKLQELSESLNAAQKARDRSAQELNAMRSKYNILRGELEKAEQRRNHAEQEAIRAGAQVETMDVGRSTLEAKVSELQLERSGLMEKLQLAEKEVSELREAKNKIKASLDLAYQKEQFRLLEENSRIGTDLKVAQQQLDTVTRQKEQLQTDAERLRGAEEELREMQVDFLKMKTTLQLVQGRPCDNAKVVADGVVNALRAYAELKKATETQEQSMASLSQQNQALSQKANEAATLTREMLTLESENRSLNEHIASLTAELRKIGDQQTALQLEKEAQDEAFRQQIERVQKEAEARRRELDHQLEQAKERHRQETTKLTAELDRVKKLHDAEKKRTSELQVQVEDVKAEATQHTEGLEKRYQEQLRERNAQIEALSSEREEFAAETRAEIQQLKKTHADALKAARADRDKVLAERESHYQQQLEEMRTRQEQHAASQHHQRQELQQRLQQLELSFQETEANLRREVDAKAADVRSLQGQKEKLERELGAVKERLEDEQRSADRNLERVKRERQQDVERLQKELDDATRLAAEAERTAAEKIQSLETDVKNTRDQLKKANAGSEEKESLLEASKTRYADLENKHNDVVQKFNDLSEENKKLKKDLSAAADDKEAKEKQIKKLTDAQARDQQEIAAIKQKEREAIAAGDRLNAEIEKLKAEHRSAELKLKNDIDAVTTDKEAVEAKLAQVQKMHKEEAEALNSRIAQLTKEKADLEKAQRNLEEEKAALEQEKRKAASEAKVKQDLLEQKIAELQKQNQNLENGLRAAKAAGAAAAARPAPGAPGQAPPAAQAPQAGAPPAEEGGLFSWWGGGAAEAPPEAPASSAGAPAEAAPAPAAEAESSSWGWW
notes: as for B1
Take B4: the “stoichiometry N” value in series [2] came to 2.
